# Reference: paper PMC10046738, “Detection of Alpha Fetoprotein Based on AIEgen Nanosphere Labeled Aptamer Combined with Sandwich Structure of Magnetic Gold Nanocomposites”
# T1: alpha-fetoprotein (AFP) (UniProt P02771 19-609)
# T1 sequence: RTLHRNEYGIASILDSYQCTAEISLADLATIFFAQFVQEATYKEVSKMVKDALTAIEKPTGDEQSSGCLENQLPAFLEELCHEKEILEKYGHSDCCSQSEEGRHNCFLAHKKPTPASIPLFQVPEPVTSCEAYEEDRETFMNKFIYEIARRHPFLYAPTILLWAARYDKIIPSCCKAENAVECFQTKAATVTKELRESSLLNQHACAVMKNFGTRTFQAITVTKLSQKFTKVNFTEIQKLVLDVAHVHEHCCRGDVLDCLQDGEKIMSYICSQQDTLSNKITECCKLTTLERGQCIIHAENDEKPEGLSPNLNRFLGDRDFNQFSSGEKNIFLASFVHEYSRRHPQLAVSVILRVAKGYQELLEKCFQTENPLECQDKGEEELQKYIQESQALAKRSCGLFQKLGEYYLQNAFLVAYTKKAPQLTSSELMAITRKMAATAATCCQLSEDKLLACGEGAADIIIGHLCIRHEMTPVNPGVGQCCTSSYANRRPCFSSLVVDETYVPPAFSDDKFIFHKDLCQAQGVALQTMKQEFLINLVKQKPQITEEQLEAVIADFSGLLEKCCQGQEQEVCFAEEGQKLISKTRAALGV
# Molecular target: T1, alpha-fetoprotein (AFP)
# Assay: fluorescence sandwich aptasensor (magnetic capture); capture aptamer on Fe3O4@MPTMS@AuNPs; AFP 0.005-10 ng/mL; LOD 1.429 pg/mL is not a Kd; PBS 10 mM, pH 7.4 (aptamer 1 immobilization); room temperature, 30 min AFP then 30 min aptamer 2; 15 nM aptamer 1, 8 ug/mL AIEgen aptamer 2, 10 ug/mL Fe3O4@MPTMS@AuNPs
# Details: label: immobilized on Fe3O4@MPTMS@AuNPs
binder,measurement,value
"Aptamer 1 (AFP aptamer, 3'-SH) (ssDNA, 3'-thiol) DNA: GTGACGCTCCTAACGCTGACTCAGGTGCAGTTCTCGACTCGGTCTTGATGTGGGTCCTGTCCGTCCGAACCAATC",binding result,binds
